Measurements as given in paper PMC6159515.

Target: CglEndoMS-ΔCter, His-tagged (lacks the five carboxy-terminal residues of CglEndoMS) (Corynebacterium glutamicum ATCC 13032)
Test: SEC

Question: How did the stoichiometry N turn out when “CglEndoMS-ΔCter, His-tagged (lacks the five carboxy-terminal residues of CglEndoMS) (domain or fragment)” was run?
Answer: 2
